Results taken from patent publication US7189691B2, “Methods and compositions for treating leukemia” (The Administrators of the Tulane Educational Fund, priority 2004, dated 2007).
Ends that are not written are not given here.

Assays:
AF4-AF9 interaction = molecular target: T1, AF4-AF9 interaction (Homo sapiens, UniProt P42568); assay: Enzyme-linked protein binding assay, GST-AF4(749-775) and biotinylated AF9; details: peptide 20 μg/ml; FIG. 2A
T1 construct: made in house; host or cells: GST-AF4 from E. coli; AF9 by coupled in vitro transcription/translation (Promega)
T1 sequence (P42568 211-568): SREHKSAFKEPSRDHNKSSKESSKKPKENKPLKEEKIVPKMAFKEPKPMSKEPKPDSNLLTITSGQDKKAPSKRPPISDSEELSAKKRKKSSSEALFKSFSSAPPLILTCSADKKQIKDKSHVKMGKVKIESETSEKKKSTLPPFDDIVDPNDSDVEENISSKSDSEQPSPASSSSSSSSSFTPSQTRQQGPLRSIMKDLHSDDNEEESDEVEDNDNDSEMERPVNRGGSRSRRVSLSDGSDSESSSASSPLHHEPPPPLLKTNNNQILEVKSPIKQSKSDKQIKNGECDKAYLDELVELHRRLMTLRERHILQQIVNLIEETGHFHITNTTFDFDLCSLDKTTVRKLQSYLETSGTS
Protocol: Next, an enzyme-linked protein binding assay was developed as a potential high throughput tool to semi-quantitatively assess the ability of various compounds to disrupt the AF4-AF9 interaction in vitro (FIGS. 2A and 2B).
GST-AF4 (749–775) SEQ ID NO: 107 was bound to glutathione-coated 96-well plates and incubated with biotinylated AF9 in conjunction with 20 μg/ml of the following peptides: • (a) Pen-[…], a fusion protein of PENETRATIN™ transporter peptide to the amino terminus of […](SEQ ID NO: 110, PFmut), • (b) Pen-[…], a fusion protein of the transporter protein PENETRATIN™ to the amino terminus of […](SEQ ID NO: 2; or PFWT), • (c) […] or […](SEQ ID NO: 111); • (d) […] or […] (SEQ ID NO: 112); • (e) […] or […](SEQ ID NO: 113), or with • (f) DMSO, or • (g) GST-Cx, a control.
The plate was washed and the retention of AF9 was determined by a colorimetric assay using streptavidin-alkaline phosphatase and pNPP as a substrate. […] At this same peptide concentration, PFmut (a) in col. […] The 10 amino acid peptide (d) in col. 6 is the smallest molecule found to have activity in vitro.

B1 leukemia cell line = assay: MTT viability assay; format: cell-based; details: 72 h, differing concentrations
Protocol: All cell lines were maintained in RPMI 1640+10% FCS. 100 μl aliquots of cell suspension (5×10^5 cells/ml) were cultured in flat-bottomed 96 well plates in the presence of different concentrations of peptides. After 72 h incubation at 37° C. in humidified air containing 5% CO2, viable cell number was determined by MTT assay as follows: 10 μl of 3-[4,5-dimethylthiazol-2-yl]-2,5-diphenyl tetrazolium bromide (MTT) (5 mg/ml concentration) (Sigma) was added to each well and incubated further for 6 h. Formazan crystals that are formed during incubation were dissolved in 100 μl of acidified isopropanol. The optical density at 550 nm (which is linearly related to the number of viable cells) was measured using a plate spectrophotometer. Growth characteristics of the leukemia cell lines were also determined for cells by Trypan Blue exclusion.

Row | Substance | AF9 binding to GST-AF4 (retention of AF9) (AF4-AF9 interaction) | cell viability (B1 leukemia cell line)
1 | WVKIDLDL [(e)] | did not interfere with AF9 binding | 
2 | Lys-Lys-Lys-Lys-Lys-Lys-Arg-Lys-Val-Leu-Ile-Val-Arg-Ile-Asp-Leu-Asp-Leu-Leu-Ser- (KKKKKKRKVLIVRIDLDLLS; structurally based on a fragment of the naturally occuring human and murine AF4 protein family members) [SPK4] |  | inhibits
3 | LWVKIDLDLLSR [(c)] | block AF9 binding | 
4 | Leu-Trp-Val-Lys-Ile-Asp-Leu-Asp-Leu-Leu- (LWVKIDLDLL; structurally based on a fragment of the naturally occuring human and murine AF4 protein family members) [(d)] | block AF9 binding | 
